The source of these data is patent US20060211084A1 (TH NITRATE ELIMINATION, published 2006).

This data set deals with the molecule itself. Nature of the data set: gel filtration chromatography (self-association). In general terms: SEC sorts molecules by how far they enter the pores of the column.

B1: simplified eukaryotic nitrate reductase (S-NaR1) (enzyme)
chain: MDSIVTEVTYGLEIKKIKDITELPFPVRQDSPLTEVLPTDLKTKDNFVARDPDLLRLTGSHPFNSEPPLTKLYDSGFLTPVSLHFVRNHGPVPYVPDENILDWEVSIEGMVETPYKIKLSDIMEQFDIYSTPVTMVCAGNRRKEQNMVKKGAGFNWGAAGTSTSLWTGCMLGDVIGKARPSKRARFVWMEGADNPANGAYRTCIRLSWCMDPERCIMIAYQQNGEWLHPDHGKPLRVVIPGVIGGRSVKWLKKLVVSDRPSENWYHYFDNRVLPTMVTPEMAKSDDRWWKDERYAIYDLNLQTIICKPENQQVIKISEDEYEIAGFGYNGGGVRIGRIEVSLDKGKSWKLADIDYPEDRYREAGYFRLFGGLVNVCDRMSCLCWCFWKLKVPLSELARSKDILIRGMDERMMVQPRTMYWNVTSMLNNWWYRVAIIREGESLRFEHPVVANKPGGWMDRVKAEGGDILEQKLISEEDLNSAVDHHHHHH
notes: Expressed in Pichia pastoris and purified by nickel IMAC; also called nitrate-reducing portion of Pichia angusta NAD(P)H: nitrate reductase
For B1, the binding result is on record as “binds”.
